B1: ATGL (PNPLA2, patatin-like phospholipase domain-containing protein 2), human, full length / G0S2 (G0/G1 switch protein 2), human (parent)
chain 1: MFPREKTWNISFAGCGFLGVYYVGVASCLREHAPFLVANATHIYGASAGALTATALVTGVCLGEAGAKFIEVSKEARKRFLGPLHPSFNLVKIIRSFLLKVLPADSHEHASGRLGISLTRVSDGENVIISHFNSKDELIQANVCSGFIPVYCGLIPPSLQGVRYVDGGISDNLPLYELKNTITVSPFSGESDICPQDSSTNIHELRVTNTSIQFNLRNLYRLSKALFPPEPLVLREMCKQGYRDGLRFLQRNGLLNRPNPLLALPPARPHGPEDKDQAVESAQAEDYSQLPGEDHILEHLPARLNEALLEACVEPTDLLTTLSNMLPVRLATAMMVPYTLPLESALSFTIRLLEWLPDVPEDIRWMKEQTGSICQYLVMRAKRKLGRHLPSRLPEQVELRRVQSLPSVPLSCAAYREALPGWMRNNLSLGDALAKWEECQRQLLLGLFCTNVAFPPEALRMRAPADPAPAPADPASPQHQLAGPAPLLSTPAPEARPVIGALGL
chain 2: METVQELIPLAKEMMAQKRKGKMVKLYVLGSVLALFGVVLGLMETVCSPFTAARRLRDQEAAVAELQAALERQALQKQALQEKGKQQDTVLGGRALSNRQHAS

This assay covers variants of B1. Put plainly: LUMIER: Protein A-ATGL variant and firefly luciferase-partner co-expressed in HEK293T, lysates immunoprecipitated on IgG-coated plates, co-precipitated partner measured as luciferase luminescence. The following applies: with G0S2 (G0/G1 switch protein 2), transient co-transfection, IgG-coated LUMITRAC plates, 2 h at 4 °C, three PBS washes, Bright-Glo luciferase reagent, triplicates per assay, two …, scale: log2 fold change of co-immunoprecipitated luminescence relative to wild-type ATGL within each experiment.

For chain 1 MFPREKTWNISFAGCGFLGVYYVGVASCLREHAPFLVANATHIYGASAGALTATALVTGVCLGEAGAKFIEVSKEARKRFLGPLHPSFNLVKIIRSFLLKVLPADSHEHASGRLGISLTRVSDGENVIISHFNSKDELIQANVCSGFIPVYCGLIPPSAQGVRYVDGGISDNLPLYELKNTITVSPFSGESDICPQDSSTNIHELRVTNTSIQFNLRNLYRLSKALFPPEPLVLREMCKQGYRDGLRFLQRNGLLNRPNPLLALPPARPHGPEDKDQAVESAQAEDYSQLPGEDHILEHLPARLNEALLEACVEPTDLLTTLSNMLPVRLATAMMVPYTLPLESALSFTIRLLEWLPDVPEDIRWMKEQTGSICQYLVMRAKRKLGRHLPSRLPEQVELRRVQSLPSVPLSCAAYREALPGWMRNNLSLGDALAKWEECQRQLLLGLFCTNVAFPPEALRMRAPADPAPAPADPASPQHQLAGPAPLLSTPAPEARPVIGALGL [chain 1 L159A], the screen value runs as follows: (parent: 0.26, not graded) -0.413; (parent: 0.56, not graded) -0.671.

Turning to chain 1 MFPREKTWNISFAGCGFLGVYYVGVASCLREHAPFLVANATHIYGASAGALTATALVTGVCLGEAGAKFIEVSKEARKRFLGPLHPSFNLVKIIRSFLLKVKPADSHEHASGRLGISLTRVSDGENVIISHFNSKDELIQANVCSGFIPVYCGLIPPSLQGVRYVDGGISDNLPLYELKNTITVSPFSGESDICPQDSSTNIHELRVTNTSIQFNLRNLYRLSKALFPPEPLVLREMCKQGYRDGLRFLQRNGLLNRPNPLLALPPARPHGPEDKDQAVESAQAEDYSQLPGEDHILEHLPARLNEALLEACVEPTDLLTTLSNMLPVRLATAMMVPYTLPLESALSFTIRLLEWLPDVPEDIRWMKEQTGSICQYLVMRAKRKLGRHLPSRLPEQVELRRVQSLPSVPLSCAAYREALPGWMRNNLSLGDALAKWEECQRQLLLGLFCTNVAFPPEALRMRAPADPAPAPADPASPQHQLAGPAPLLSTPAPEARPVIGALGL [chain 1 L102K], the screen value is, setting by setting: (parent: 0.26, not graded) -2.65; (parent: 0.56, not graded) -2.45.

Take chain 1 MFPREKTWNISFAGCGFLGVYYVGVASCLREHAPFLVANATHIYGASAGALTATALVTGVCLGEAGAKFIEVSKEARKRFLGPLHPSFNLVKIIRSFLLKVLPADSHEHASGRLGISLTRVSDGENVIISHFNSKDELIQANVCSGFIPVYCGLIPPSLQGVRYVDGGISDNLPLYEAKNTITVSPFSGESDICPQDSSTNIHELRVTNTSIQFNLRNLYRLSKALFPPEPLVLREMCKQGYRDGLRFLQRNGLLNRPNPLLALPPARPHGPEDKDQAVESAQAEDYSQLPGEDHILEHLPARLNEALLEACVEPTDLLTTLSNMLPVRLATAMMVPYTLPLESALSFTIRLLEWLPDVPEDIRWMKEQTGSICQYLVMRAKRKLGRHLPSRLPEQVELRRVQSLPSVPLSCAAYREALPGWMRNNLSLGDALAKWEECQRQLLLGLFCTNVAFPPEALRMRAPADPAPAPADPASPQHQLAGPAPLLSTPAPEARPVIGALGL [chain 1 L178A]: the screen value runs as follows: (parent: 0.26, not graded) -0.634; (parent: 0.56, not graded) 0.0997.

Source of the values: paper PMC10958042.
